Test results reported in patent publication US20050025760A1 (KEIO UNIVERSITY, published 2005).

What was measured:
[1] = biological target: T1, recombinant protein human Dsg1-His (human, UniProt Q02413 50-548); test: ELISA on recombinant human Dsg1-His
T1 construct: extracellular domain; Baculovirus product; not shown: C-terminal His tag
T1 sequence (looked up): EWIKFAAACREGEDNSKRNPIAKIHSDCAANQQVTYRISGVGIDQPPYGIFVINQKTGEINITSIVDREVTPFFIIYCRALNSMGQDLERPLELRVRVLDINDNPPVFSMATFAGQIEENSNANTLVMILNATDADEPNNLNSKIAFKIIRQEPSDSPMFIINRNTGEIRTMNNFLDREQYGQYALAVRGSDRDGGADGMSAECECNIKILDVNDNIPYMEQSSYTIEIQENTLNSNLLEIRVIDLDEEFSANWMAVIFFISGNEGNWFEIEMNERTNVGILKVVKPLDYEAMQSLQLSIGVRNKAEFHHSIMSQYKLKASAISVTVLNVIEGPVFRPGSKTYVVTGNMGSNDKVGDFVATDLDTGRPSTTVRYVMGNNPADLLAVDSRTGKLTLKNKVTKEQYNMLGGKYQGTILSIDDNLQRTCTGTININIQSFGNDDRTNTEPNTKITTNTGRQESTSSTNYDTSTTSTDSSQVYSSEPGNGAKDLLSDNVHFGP
From the text: The baculovirus vectors, pEVmod-Dsg3-His and pEVmod-Dsg1-His, pEVmod-mouse Dsg3-His and pEVmod-mouse Dsg1 -His, that were constructed according to the method as described previously (J. Immunol. 159, 2010-2017, 1997) were used. These recombinant baculoviruses were infected to insect cells, High Five (Invitrogen Corporation), then the recombinant protein human Dsg3-His and Dsg1-His, recombinant protein mouse Dsg3-His and Dsg1-His were collected from the culture media, respectively. In addition, purification of these recombinant proteins was conducted using Ni-NTA column. These purified recombinant proteins were coated on ELISA (Enzyme Linked Immunosorbent Assay) plates, respectively, 50 μl each of the culture supernatant of the anti-Dsg3 monoclonal antibody-producing hybridoma was added to each well, and ELISA was practiced according to the method as previously described (J Clin Invest 105, 625-631, 2000). PV mouse model 1 serum with moderate degree of antibody titer was selected as a positive control, and 1 serum of normal mouse serum was selected as a negative control. Absorbance was determined at wavelength 450 nm (Bio-rad, Hercules, Calif. USA), and the index was shown by the following formula. Index={OD(specimen)−OD(negative control)}/{OD(positive control)−OD(negative control)}×100 A-2 (Living Cell Staining using Culture Mouse Keratinocyte PAM 212)

[2] = biological target: T2, human Dsg3 in human skin or mucosa (human, UniProt P32926 50-999); test: indirect immunofluorescence on human skin sections
T2 construct: whole, on cells; also called human tissues
T2 sequence (looked up): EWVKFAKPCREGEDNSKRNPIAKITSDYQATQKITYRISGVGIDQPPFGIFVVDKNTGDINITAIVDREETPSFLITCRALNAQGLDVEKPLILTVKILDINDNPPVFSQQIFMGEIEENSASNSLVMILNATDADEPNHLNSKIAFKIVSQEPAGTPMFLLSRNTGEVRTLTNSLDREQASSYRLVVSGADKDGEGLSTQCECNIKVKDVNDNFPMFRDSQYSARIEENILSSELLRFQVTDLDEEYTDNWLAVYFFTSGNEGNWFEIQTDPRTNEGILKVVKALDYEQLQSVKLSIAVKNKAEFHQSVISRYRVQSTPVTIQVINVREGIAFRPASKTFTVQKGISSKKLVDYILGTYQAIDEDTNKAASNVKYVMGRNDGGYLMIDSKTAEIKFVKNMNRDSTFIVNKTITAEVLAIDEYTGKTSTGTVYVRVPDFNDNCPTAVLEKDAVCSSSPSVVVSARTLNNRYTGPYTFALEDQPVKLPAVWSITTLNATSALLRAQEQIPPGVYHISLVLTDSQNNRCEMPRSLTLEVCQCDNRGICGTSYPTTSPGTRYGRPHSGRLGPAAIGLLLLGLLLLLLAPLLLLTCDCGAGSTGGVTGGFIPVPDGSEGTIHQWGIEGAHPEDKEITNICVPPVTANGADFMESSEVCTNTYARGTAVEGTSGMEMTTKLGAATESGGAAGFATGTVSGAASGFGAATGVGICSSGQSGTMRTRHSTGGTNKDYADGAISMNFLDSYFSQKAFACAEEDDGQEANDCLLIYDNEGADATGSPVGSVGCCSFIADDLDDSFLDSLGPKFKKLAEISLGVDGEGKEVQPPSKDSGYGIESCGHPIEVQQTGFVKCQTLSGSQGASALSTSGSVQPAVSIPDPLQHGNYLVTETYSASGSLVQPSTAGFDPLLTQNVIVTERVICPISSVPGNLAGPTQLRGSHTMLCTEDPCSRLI
Description: A-5 (Indirect Immunofluorescence) C57B1/6J mouse hard palate, liver and human skin were embedded with OCT compound (SAKURA, USA), then froze and sectioned into 5 μm thickness, and constructed a substrate. After each of hybridoma culture supernatants were reacted for 1 hour at room temperature, they were washed with PBS (3 times), and reacted with ×100 diluted FITC labeled goat anti-mouse IgG (DAKO A/S, Glostrup, Denmark) for 1 hour at room temperature, they were washed with PBS (3 times), and microscopic examination was conducted using a fluorescence microscope.

B1: anti-Dsg3 monoclonal antibody AK23 (antibody, mouse IgG1, V domains shown)
VH: QVQLQQSGTELVKPGASVKLSCKSSGYTFTSYWINWVKQRPGQGLEWIGNINPSNGGINYNEKFKSKATLTVDKSSSTAYMQLKSLTSEDSAVYYCARGGYDGYPWGQGTTVTVS
VL: DIQMTQSPKFLLVSAGDRVTITCKASQSVSYDVAWYQQKPGQSPKLLISYASNRYTGVPDRFTGSGYGSDFTFTISTVQTEDLAVYFCQQDYSSPWTFGGGTKLELKR
notes: Mouse IgG1 kappa hybridoma antibody
binding result [1]: no binding
binding result [2]: binds
